Our source for the IL-8 production by monocytes co-cultured for 5 days (ELISA) values is patent publication US20170000850A1.

The assay has as its target CD137 ligand (CD137L) (human) (UniProt P41273). As to the kind of experiment: cell-based or functional assay.
UniProt P41273, sequence (P41273 whole entry): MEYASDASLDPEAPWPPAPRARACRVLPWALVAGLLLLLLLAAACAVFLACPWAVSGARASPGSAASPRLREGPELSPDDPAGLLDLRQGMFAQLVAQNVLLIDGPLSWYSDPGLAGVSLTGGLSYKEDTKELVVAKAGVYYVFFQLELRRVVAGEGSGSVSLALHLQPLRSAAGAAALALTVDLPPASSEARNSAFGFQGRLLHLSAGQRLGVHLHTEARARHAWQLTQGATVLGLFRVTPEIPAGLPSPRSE

For the substance “RBC-CD137-Fc (biotinylated CD137-Fc conjugated through avidin to biotinylated red blood cells) (from UniProt Q07011 24-186) (Fc fusion)”, the IL-8 production by monocytes co-cultured for 5 days (ELISA) is 2 fold.
